Experimental data as given in publication PMC9331606 (2022).

B1: Halo-tagged human cytomegalovirus immediate early 1 protein (hIE1) [human cytomegalovirus (HCMV)] / NanoLuciferase-tagged human promyelocytic leukemia protein (hPML) [human] (parent complex)
chain 1: MESSAKRKMDPDNPDEGPSSKVPRPETPVTKATTFLQTMLRKEVNSQLSLGDPLFPELAEESLKTFEQVTEDCNENPEKDVLAELVKQIKVRVDMVRHRIKEHMLKKYTQTEEKFTGAFNMMGGCLQNALDILDKVHEPFEEMKCIGLTMQSMYENYIVPEDKREMWMACIKELHDVSKGAANKLGGALQAKARAKKDELRRKMMYMCYRNIEFFTKNSAFPKTTNGCSQAMAALQNLPQCSPDEIMAYAQKIFKILDEERDKVLTHIDHIFMDILTTCVETMCNEYKVTSDACMMTMYGGISLLSEFCRVLCCYVLEETSVMLAKRPLITKPEVISVMKRRIEEICMKVFAQYILGADPLRVCSPSVDDLRAIAEESDEEEAIVAYTLATAGVSSSDSLVSPPESPVPATIPLSSVIVAENSDQEESEQSDEEEEEGAQEEREDTVSVKSEPVSEIEEVAPEEEEDGAEEPTASGGKSTHPMVTRSKADQ
chain 2: MEPAPARSPRPQQDPARPQEPTMPPPETPSEGRQPSPSPSPTERAPASEEEFQFLRCQQCQAEAKCPKLLPCLHTLCSGCLEASGMQCPICQAPWPLGADTPALDNVFFESLQRRLSVYRQIVDAQAVCTRCKESADFWCFECEQLLCAKCFEAHQWFLKHEARPLAELRNQSVREFLDGTRKTNNIFCSNPNHRTPTLTSIYCRGCSKPLCCSCALLDSSHSELKCDISAEIQQRQEELDAMTQALQEQDSAFGAVHAQMHAAVGQLGRARAETEELIRERVRQVVAHVRAQERELLEAVDARYQRDYEEMASRLGRLDAVLQRIRTGSALVQRMKCYASDQEVLDMHGFLRQALCRLRQEEPQSLQAAVRTDGFDEFKVRLQDLSSCITQGKDAAVSKKASPEAASTPRDPIDVDLPEEAERVKAQVQALGLAEAQPMAVVQSVPGAHPVPVYAFSIKGPSYGEDVSNTTTAQKRKCSQTQCPRKVIKMESEEGKEARLARSSPEQPRPSTSKAVSPPHLDGPPSPRSPVIGSEVFLPNSNHVASGAGEAEERVVVISSSEDSDAENSSSRELDDSSSESSDLQLEGPSTLRVLDENLADPQAEDRPLVFFDLKIDNETQKISQLAAVNRESKFRVVIQPEAFFSIYSKAVSLEVGLQHFLSFLSSMRRPILACYKLWGPGLPNFFRALEDINRLWEFQEAISGFLAALPLIRERVPGASSFKLKNLAQTYLARNMSERSAMAAVLAMRDLCRLLEVSPGPQLAQHVYPFSSLQCFASLQPLVQAAVLPRAEARLLALHNVSFMELLSAHRRDRQGGLKKYSRYLSLQTTTLPPAQPAFNLQALGTYFEGLLEGPALARAEGVSTPLAGRGLAERASQQS

Variants of: B1
Test: NanoBRET; HEK293T cells transfected 24 h; 4 h incubation with Halo ligand; detection time 5 s at 618 nm and 448 nm; parent: 23; read off a plot

Q: For chain 1 MESSAKRKMDPDNPDEGPSSKVPRPETPVTKATTFLQTMLRKEVNSQLSLGDPLFPELAEESLKTFEQVTEDCNENPEKDVLAELVKQIKVRVDMVRHRIKEHMLKKYTQTEEKFTGAFNMMGGCLQNALDILDKVHEPFEEMKCIGLTMQSMYENYIVPEDKREMWMACIKEPHDVSKGAANKLGGALQAKARAKKDELRRKMMYMCYRNIEFFTKNSAFPKTTNGCSQAMAALQNLPQCSPDEIMAYAQKIFKILDEERDKVLTHIDHIFMDILTTCVETMCNEYKVTSDACMMTMYGGISLLSEFCRVLCCYVLEETSVMLAKRPLITKPEVISVMKRRIEEICMKVFAQYILGADPLRVCSPSVDDLRAIAEESDEEEAIVAYTLATAGVSSSDSLVSPPESPVPATIPLSSVIVAENSDQEESEQSDEEEEEGAQEEREDTVSVKSEPVSEIEEVAPEEEEDGAEEPTASGGKSTHPMVTRSKADQ [chain 1 L174P], which response is on record?
A: The response was ~1.2 mBU.
